Measurements published in article PMC9583931, “Emerin interacts with histone methyltransferases to regulate repressive chromatin at the nuclear periphery” (Frontiers in Cell and Developmental Biology, 2022).
Substitutions are numbered along the chain they refer to. Names and notes keep the numbering of the source.

B1: emerin (endogenous, wildtype myogenic progenitors) (natural protein, UniProt O08579 1-259, looked up)
chain: MDDYAVLSDTELAAVLRQYNIPHGPIVGSTRKLYEKKIFEYETQRRRLLPPNSSSSSFSYQFSDLDSAAVDSDMYDLPKKEDALLYQSKDYNDDYYEESYLTTKTYGEPESVGMSKSFRQPGTSLVDADTFHHQVRDDIFSSLEEEGKDRERLIYGQDSAYQSIAHYRPISNVSRSSLGLSYYPTSSTSSVSSSSSSPSSWLTRRAIRPEKQAPAAALGQDRQVPLWGQLLLFLVFAAFLLFVYYSIQAEEGNPFWMDP
notes: emerin, endogenous protein of H2K wildtype mouse myogenic progenitors; also called wildtype emerin; endogenous emerin; source: endogenous, H2K wildtype mouse myogenic progenitors, in lysate (soluble fraction)
B2: euchromatic histone lysine methyltransferase 2 (G9a) (enzyme, UniProt Q9Z148 1-1263, looked up)
chain: MRGLPRGRGLMRARGRGRAAPTGGRGRGRGGAHRGRGRPRSLLSLPRAQASWAPQLPAGLTGPPVPCLPSQGEAPAEMGALLLEKEPRGAAERVHSSLGDTPQSEETLPKANPDSLEPAGPSSPASVTVTVGDEGADTPVGAASLIGDEPESLEGDGGRIVLGHATKSFPSSPSKGGACPSRAKMSMTGAGKSPPSVQSLAMRLLSMPGAQGAATAGPEPSPATTAAQEGQPKVHRARKTMSKPSNGQPPIPEKRPPEVQHFRMSDDMHLGKVTSDVAKRRKLNSGSLSEDLGSAGGSGDIILEKGEPRPLEEWETVVGDDFSLYYDAYSVDERVDSDSKSEVEALAEQLSEEEEEEEEEEEEEEEEEEEEEEEEEDEESGNQSDRSGSSGRRKAKKKWRKDSPWVKPSRKRRKREPPRAKEPRGVNGVGSSGPSEYMEVPLGSLELPSEGTLSPNHAGVSNDTSSLETERGFEELPLCSCRMEAPKIDRISERAGHKCMATESVDGELLGCNAAILKRETMRPSSRVALMVLCEAHRARMVKHHCCPGCGYFCTAGTFLECHPDFRVAHRFHKACVSQLNGMVFCPHCGEDASEAQEVTIPRGDGGTPPIGTAAPALPPLAHDAPGRADTSQPSARMRGHGEPRRPPCDPLADTIDSSGPSLTLPNGGCLSAVGLPPGPGREALEKALVIQESERRKKLRFHPRQLYLSVKQGELQKVILMLLDNLDPNFQSDQQSKRTPLHAAAQKGSVEICHVLLQAGANINAVDKQQRTPLMEAVVNNHLEVARYMVQLGGCVYSKEEDGSTCLHHAAKIGNLEMVSLLLSTGQVDVNAQDSGGWTPIIWAAEHKHIDVIRMLLTRGADVTLTDNEENICLHWASFTGSAAIAEVLLNAQCDLHAVNYHGDTPLHIAARESYHDCVLLFLSRGANPELRNKEGDTAWDLTPERSDVWFALQLNRKLRLGVGNRAVRTEKIICRDVARGYENVPIPCVNGVDGEPCPEDYKYISENCETSTMNIDRNITHLQHCTCVDDCSSSNCLCGQLSIRCWYDKDGRLLQEFNKIEPPLIFECNQACSCWRSCKNRVVQSGIKVRLQLYRTAKMGWGVRALQTIPQGTFICEYVGELISDAEADVREDDSYLFDLDNKDGEVYCIDARYYGNISRFINHLCDPNIIPVRVFMLHQDLRFPRIAFFSSRDIRTGEELGFDYGDRFWDIKSKYFTCQCGSEKCKHSAEAIALEQSRLARLDPHPELLPDLSSLPPINT
notes: G9a (EHMT2), endogenous protein of mouse myogenic progenitors; also called EHMT2; source: endogenous, mouse myogenic progenitors, in lysate (soluble fraction)
B3: EZH2 (enzyme)
chain: not shown
notes: EZH2, endogenous protein of mouse myogenic progenitors; also called catalytic component of PRC2; source: endogenous, mouse myogenic progenitors, in lysate (soluble fraction)
B4: emerin S54F (EDMD1 mutant) (natural protein, UniProt P50402 1-254, looked up)
chain: MDNYADLSDTELTTLLRRYNIPHGPVVGSTRRLYEKKIFEYETQRRRLSPPSSFAASSYSFSDLNSTRGDADMYDLPKKEDALLYQSKGYNDDYYEESYFTTRTYGEPESAGPSRAVRQSVTSFPDADAFHHQVHDDDLLSSSEEECKDRERPMYGRDSAYQSITHYRPVSASRSSLDLSYYPTSSSTSFMSSSSSSSSWLTRRAIRPENRAPGAGLGQDRQVPLWGQLLLFLVFVIVLFFIYHFMQAEEGNPF
notes: emerin with the EDMD1-causing mutation S54F; also called S54F emerin
B5: emerin Q133H (EDMD1 mutant) (natural protein, UniProt P50402 1-254, looked up)
chain: B4 chain with F54S, Q133H
notes: emerin with the EDMD1-causing mutation Q133H; also called Q133H emerin

How the values were obtained:
Settings in all cases: partners not purified
[1] = molecular target: B2; experiment: co-IP; anti-G9a antibody on protein G magnetic beads, incubated overnight with the soluble fraction of sonicated whole-cell lysates (modified NEHN buffer, 500 mM NaCl, 1% NP-40) of proliferating myogenic progenitors; blot for emerin; densitometry, ratio of bound to input
EZH2 = molecular target: B3; experiment: co-IP; anti-EZH2 antibody on protein G magnetic beads, incubated overnight with the soluble fraction of sonicated whole-cell lysates (modified NEHN buffer, 500 mM NaCl, 1% NP-40) of proliferating myogenic progenitors; blot for emerin; densitometry, ratio of bound to input
EZH2, sequence (Q61188 whole entry): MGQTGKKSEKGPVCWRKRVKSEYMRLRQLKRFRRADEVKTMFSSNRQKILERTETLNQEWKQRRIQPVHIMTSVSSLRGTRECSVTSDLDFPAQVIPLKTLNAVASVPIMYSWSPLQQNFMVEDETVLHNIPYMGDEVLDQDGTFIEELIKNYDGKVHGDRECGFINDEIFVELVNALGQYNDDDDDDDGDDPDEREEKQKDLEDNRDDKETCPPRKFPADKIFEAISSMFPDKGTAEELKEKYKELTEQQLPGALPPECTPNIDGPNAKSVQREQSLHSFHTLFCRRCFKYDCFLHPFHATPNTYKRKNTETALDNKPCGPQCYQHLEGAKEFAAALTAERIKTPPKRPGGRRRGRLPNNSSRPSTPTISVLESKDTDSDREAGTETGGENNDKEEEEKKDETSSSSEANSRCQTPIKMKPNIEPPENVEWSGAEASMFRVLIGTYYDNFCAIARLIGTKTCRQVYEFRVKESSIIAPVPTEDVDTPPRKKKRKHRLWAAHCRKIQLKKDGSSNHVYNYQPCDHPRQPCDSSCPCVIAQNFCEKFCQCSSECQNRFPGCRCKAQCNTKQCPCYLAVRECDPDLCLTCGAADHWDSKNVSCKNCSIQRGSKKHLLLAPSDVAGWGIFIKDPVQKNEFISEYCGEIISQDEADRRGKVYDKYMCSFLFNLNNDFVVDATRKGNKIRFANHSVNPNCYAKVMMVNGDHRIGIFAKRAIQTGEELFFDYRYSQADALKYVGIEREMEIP

[2] = molecular target: B5; experiment: co-IP; anti-emerin antibody on protein G magnetic beads, incubated overnight with the soluble fraction of sonicated whole-cell lysates (modified NEHN buffer, 500 mM NaCl, 1% NP-40) of proliferating myogenic progenitors; blot for G9a or EZH2; densitometry, ratio of bound to input
[3] = molecular target: B4; experiment: as above
[4] = molecular target: B1; experiment: as above

B1
percent of input bound [1]: 0.76 % of input
percent of input bound (EZH2): 0.7%

B2
percent of input bound [2]: 9.6%
percent of input bound [3]: 13.8%
percent of input bound [4]: 0.2%

B3
percent of input bound [2]: 89.4%
percent of input bound [3]: 57.9%
percent of input bound [4]: 2.4%

B4
percent of input bound [1]: 80.9 % of input
percent of input bound (EZH2): 71.8%

B5
percent of input bound [1]: 45.1 % of input
percent of input bound (EZH2): 77.8%
